The supplement of paper PMC10567573

B1: TRAF3IP2 (parent)
chain: PRPPSNPPARGTLKTSNLPEELRK
B2: PPP2R2C (parent)
chain: YSSSKGSLRLCDMRAAALCDKHSK

Variants of: B1
Experiment: protein stability index of a GFP-peptide fusion (GPS, HEK-293T) (PSI 1-6); higher = more stable
Conditions: c terminus: a fixed tail appended
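Further: lentivirally expressed fusions sorted by FACS into six bins by GFP to DsRed ratio, PSI derived from sequencing read proportions per bin multiplied by bin number.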

Variant	protein stability index
L22T	5.4
L22D	5.22
L22I	4.56
L22P	5.15
L22Y	4.47
L22G	4.15
L22N	4.93
L22S	4.96
L22K	4.97
L22Q	5.39
L22E	5.61
L22W	4.25
L22V	3.16
L22C	5.65
L22M	4.75
L22A	4.55
L22R	4.82
L22F	4.24
L22H	5.11
R23H	4.7
R23L	4.19
R23Y	4.47
R23M	4.31
R23I	4.39
R23K	4.92

Variant	protein stability index
R23T	4.77
R23W	3.42
R23S	5.16
R23Q	5.23
R23P	5.21
R23V	4.13
R23C	4.64
R23E	4.94
R23G	4.7
R23D	4.9
R23N	5.2
R23A	4.7
R23F	3.92
E20R	4.48
E20D	4.81
E20C	4.44
E20P	4.21
E20I	3.44
E20Q	4.67
E20A	4.41
E20H	3.96
E20N	4.61
E20Y	3.95
E20L	4.1
E20S	4.52

Variant	protein stability index
E20T	4.25
E20F	4.06
E20K	4.2
E20G	5.51
E20W	4
E20V	3.41
E20M	4.14
E21V	3.74
E21S	3.97
E21M	3.06
E21T	4.46
E21H	3.94
E21N	4.6
E21R	4.2
E21Y	4.23
E21L	4.26
E21D	4.71
E21I	4.29
E21W	3.69
E21A	4.6
E21P	3.62
E21Q	5.04
E21F	3.73
E21K	4.26
E21G	4.36

Variant	protein stability index
E21C	4.19
K24N	4.87
K24R	4.75
K24Y	3.78
K24G	4.05
K24Q	4.66
K24L	4.31
K24F	4.33
K24T	4.8
K24M	4.26
K24P	3.9
K24H	4.79
K24I	4.24
K24V	4.53
K24C	4.9
K24D	5.14
K24E	4.99
K24A	4.86
K24S	4.7
K24W	4.19
P19Y	3.54
P19W	3.98

Variants of: B2
Experiment: as above
Conditions: c terminus: a fixed tail appended

Variant	protein stability index
K5N	1.43
K5H	1.68
K5W	2.11
K5V	1.55
K5M	2.1
K5G	1.49
K5Q	2.12
K5S	2.27
K5L	1.93
K5C	1.68
K5P	2.03
K5D	2.06
K5E	1.73
K5T	2.23
K5I	2.19
K5Y	1.52
K5A	1.65
K5F	1.84
K5R	1.85
Y1F	2.31
Y1T	4.13
Y1C	2.98
Y1S	3.74
Y1H	3.72

Variant	protein stability index
Y1G	3.72
Y1I	3.73
Y1N	3.81
Y1R	3.81
Y1Q	3.95
Y1W	2.92
Y1K	3.79
Y1A	3.93
Y1V	3.56
Y1M	3.54
Y1E	4.47
Y1L	3.65
Y1P	3.65
Y1D	4.63
S4E	2.78
S4P	2.57
S4T	1.8
S4Q	2.32
S4K	1.34
S4H	2.09
S4G	2.87
S4F	2.27
S4D	2.96
S4Y	1.98

Variant	protein stability index
S4N	2.32
S4V	2.45
S4A	2.44
S4C	1.38
S4M	2
S4L	2.62
S4R	2.11
S4W	1.63
S4I	2.06
S3P	2.79
S3E	2.53
S3I	3.06
S3R	2.29
S3K	2.37
S3N	2.48
S3F	2.39
S3T	2.11
S3W	2.15
S3H	2.52
S3D	2.92
S3V	1.96
S3L	2.7
S3C	3.48
S3G	1.95

Variant	protein stability index
S3A	2.93
S3M	2.84
S3Q	2.45
S3Y	1.83
R9C	3.28
R9D	4.21
R9V	2.91
R9P	3.11
R9E	3.7
R9S	3.81
R9H	2.42
R9G	1.9
R9Y	1.76
R9M	1.9
R9Q	3.3
R9F	2.37
R9N	3.45
R9L	3.61
R9K	3.11
R9A	2.63
R9T	3.28
R9I	1.7
D12A	2.32
D12C	1.99

Variant	protein stability index
D12V	2.11
D12T	2.69
D12M	1.78
D12I	1.6
D12Y	2.1
D12Q	2.76
D12P	2.25
D12R	2.36
D12S	2.29
D12F	1.52
D12H	3.2
D12G	1.93
D12N	2.63
D12E	2.71
D12L	1.82
D12W	2.7
D12K	2.54
G6I	2.31
G6P	2.48
G6C	1.95
G6W	1.76
G6N	1.94
G6D	2.73
G6E	2.68

Variant	protein stability index
G6H	2.04
G6Y	1.52
G6R	2.05
G6T	2.07
G6F	1.81
G6K	2.2
G6Q	2.39
G6V	2.21
G6A	1.91
G6S	1.82
G6L	2.18
G6M	1.85
L10S	3.54
L10R	3.16
L10Q	3.79
L10W	2.21
L10F	2.22
L10G	3.53
L10C	2.95
L10I	2.9
L10V	3.54
L10K	3.1
L10A	3.72
L10N	3.67

Variant	protein stability index
L10M	1.92
L10P	3.52
L10E	4.47
L10D	4.23
L10H	3.04
L10Y	2.02
L10T	3.35
S7K	1.07
S7L	1.49
S7M	1.76
S7P	1.89
S7R	2.04
S7E	1.56
S7Q	2.04
S7T	1.8
S7G	4.06
S7V	2.24
S7N	1.65
S7C	1.76
S7Y	1.94
S7D	2.24
S7A	2.9
S7H	2.92
S7W	3.69

Variant	protein stability index
S7I	1.34
S2N	3.28
S2H	2
S2T	2
S2I	1.54
S2A	2.44
S2L	2.52
S2P	2.5
S2Y	2.94
S2M	1.72
S2K	3.58
S2E	3.84
S2G	2.46
S2F	2.8
S2R	2.98
S2Q	1.94
S2D	3.89
S2W	1.89
S2C	1.92
C11H	3.63
C11T	2.88
C11R	3.31
C11L	2.36
C11F	1.67

Variant	protein stability index
C11D	3.74
C11P	4.05
C11M	2.29
C11E	3.85
C11K	3.07
C11G	2.92
C11N	3.72
C11W	1.2
C11Q	2.97
C11Y	2.75
C11S	3.16
C11A	2.96
C11V	1.8
C11I	1.42
M13C	1.73
M13H	1.56
M13D	2.37
M13E	2.49
M13I	2.08
M13A	1.52
M13F	1.46
M13G	2
M13P	2.21
M13N	2.05

Variant	protein stability index
M13L	2
M13K	2.08
L8T	1.97
L8R	1.51
L8N	2.36
L8M	1.79
L8G	2.19
L8W	2.39
L8H	2.64
L8Y	1.36
L8V	1.95
L8P	2.27
L8S	2.02
L8E	2.41
L8A	1.75
L8Q	1.89
L8K	2.17
L8I	1.78
L8F	2.5
L8C	2.5
L8D	2.76
